Test results reported in US20220098681A1 (INSERM INSTITUTE NATIONAL DE LA SANT ET DE LA RECHERCHE M …, published 2022).

Assays:
GST-nsP3 = biological target: T1, GST-nsP3 (chikungunya virus, UniProt Q8JUX6 1334-1856); experiment: GST pull-down with purified proteins, western blot with anti-FHL1
T1 chain: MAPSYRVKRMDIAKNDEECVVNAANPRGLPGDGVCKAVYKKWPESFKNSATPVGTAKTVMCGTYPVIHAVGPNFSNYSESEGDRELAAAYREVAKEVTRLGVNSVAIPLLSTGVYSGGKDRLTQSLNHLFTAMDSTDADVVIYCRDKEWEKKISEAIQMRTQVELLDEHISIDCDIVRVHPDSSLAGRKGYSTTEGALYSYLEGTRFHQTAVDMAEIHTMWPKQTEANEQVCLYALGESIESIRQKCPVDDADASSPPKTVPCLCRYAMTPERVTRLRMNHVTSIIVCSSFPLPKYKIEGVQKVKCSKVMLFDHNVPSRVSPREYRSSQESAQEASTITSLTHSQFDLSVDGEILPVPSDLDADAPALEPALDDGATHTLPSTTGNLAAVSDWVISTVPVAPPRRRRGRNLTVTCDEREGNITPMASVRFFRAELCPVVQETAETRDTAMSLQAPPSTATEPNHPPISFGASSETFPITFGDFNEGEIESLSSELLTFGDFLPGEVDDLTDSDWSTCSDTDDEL

GST-nsP3ΔHVD = biological target: T2, GST-nsP3ΔHVD (chikungunya virus, UniProt Q8JUX6 1334-1657); experiment: as above
T2 chain: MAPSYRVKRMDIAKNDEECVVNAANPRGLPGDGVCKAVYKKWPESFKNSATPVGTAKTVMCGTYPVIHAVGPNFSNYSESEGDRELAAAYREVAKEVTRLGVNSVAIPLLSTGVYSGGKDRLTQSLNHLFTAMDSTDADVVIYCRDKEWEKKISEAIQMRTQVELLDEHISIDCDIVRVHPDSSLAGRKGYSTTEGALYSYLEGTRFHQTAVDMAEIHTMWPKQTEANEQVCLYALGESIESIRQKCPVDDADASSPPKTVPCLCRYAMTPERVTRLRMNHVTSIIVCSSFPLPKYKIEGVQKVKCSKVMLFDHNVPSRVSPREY

G3BP1 = G3BP1 (UniProt Q13283 2-466); experiment: co-immunoprecipitation in ΔFHL1 cells
[1] = biological target: T3, C-terminal HA-tagged FHL1A (human, UniProt Q13642-1 2-280); experiment: co-immunoprecipitation, immunoblot (FIG. 4)
T3 sequence: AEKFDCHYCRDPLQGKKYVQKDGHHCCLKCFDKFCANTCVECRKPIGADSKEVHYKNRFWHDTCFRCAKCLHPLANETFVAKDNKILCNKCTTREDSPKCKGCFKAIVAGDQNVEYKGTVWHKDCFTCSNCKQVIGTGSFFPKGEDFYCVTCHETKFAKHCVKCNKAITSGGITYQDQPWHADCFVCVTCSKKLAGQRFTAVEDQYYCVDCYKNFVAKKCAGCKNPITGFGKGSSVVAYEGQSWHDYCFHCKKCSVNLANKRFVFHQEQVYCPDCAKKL

[2] = biological target: T4, C-terminal HA-tagged FHL2 (UniProt Q14192 1-279); experiment: co-immunoprecipitation from co-transfected 293T cells
T4 sequence: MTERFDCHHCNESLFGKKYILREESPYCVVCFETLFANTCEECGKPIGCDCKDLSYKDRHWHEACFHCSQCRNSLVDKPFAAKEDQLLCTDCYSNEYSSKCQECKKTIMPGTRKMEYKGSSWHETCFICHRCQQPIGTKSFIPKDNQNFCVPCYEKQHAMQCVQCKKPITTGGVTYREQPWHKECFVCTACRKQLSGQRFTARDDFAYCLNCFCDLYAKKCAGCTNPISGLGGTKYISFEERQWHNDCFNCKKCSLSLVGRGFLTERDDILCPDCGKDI

G3BP1, sequence (Q13283 2-466 limits assumed): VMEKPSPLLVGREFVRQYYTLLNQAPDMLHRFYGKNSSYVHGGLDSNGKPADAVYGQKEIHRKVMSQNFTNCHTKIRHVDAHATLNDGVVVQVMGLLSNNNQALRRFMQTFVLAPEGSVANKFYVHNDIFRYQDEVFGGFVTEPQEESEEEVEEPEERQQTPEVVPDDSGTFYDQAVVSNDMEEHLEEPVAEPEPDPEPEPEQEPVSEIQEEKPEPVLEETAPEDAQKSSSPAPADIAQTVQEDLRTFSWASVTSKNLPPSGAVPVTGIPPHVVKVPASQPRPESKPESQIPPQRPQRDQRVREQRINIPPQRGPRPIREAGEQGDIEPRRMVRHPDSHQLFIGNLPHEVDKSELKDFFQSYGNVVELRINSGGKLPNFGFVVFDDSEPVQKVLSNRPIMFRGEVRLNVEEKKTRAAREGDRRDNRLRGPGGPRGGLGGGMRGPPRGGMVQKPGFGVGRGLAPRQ

B1: 6×His-FHL1A (other)
chain: AEKFDCHYCRDPLQGKKYVQKDGHHCCLKCFDKFCANTCVECRKPIGADSKEVHYKNRFWHDTCFRCAKCLHPLANETFVAKDNKILCNKCTTREDSPKCKGCFKAIVAGDQNVEYKGTVWHKDCFTCSNCKQVIGTGSFFPKGEDFYCVTCHETKFAKHCVKCNKAITSGGITYQDQPWHADCFVCVTCSKKLAGQRFTAVEDQYYCVDCYKNFVAKKCAGCKNPITGFGKGSSVVAYEGQSWHDYCFHCKKCSVNLANKRFVFHQEQVYCPDCAKKL
binding result (GST-nsP3): binds | binding result (GST-nsP3ΔHVD): no binding

B2: FLAG-tagged CHIKV nsP3 (pCI-neo-3×FLAG plasmid expressing the CHIKV nsP3) (other)
chain: MAPSYRVKRMDIAKNDEECVVNAANPRGLPGDGVCKAVYKKWPESFKNSATPVGTAKTVMCGTYPVIHAVGPNFSNYSESEGDRELAAAYREVAKEVTRLGVNSVAIPLLSTGVYSGGKDRLTQSLNHLFTAMDSTDADVVIYCRDKEWEKKISEAIQMRTQVELLDEHISIDCDIVRVHPDSSLAGRKGYSTTEGALYSYLEGTRFHQTAVDMAEIHTMWPKQTEANEQVCLYALGESIESIRQKCPVDDADASSPPKTVPCLCRYAMTPERVTRLRMNHVTSIIVCSSFPLPKYKIEGVQKVKCSKVMLFDHNVPSRVSPREYRSSQESAQEASTITSLTHSQFDLSVDGEILPVPSDLDADAPALEPALDDGATHTLPSTTGNLAAVSDWVISTVPVAPPRRRRGRNLTVTCDEREGNITPMASVRFFRAELCPVVQETAETRDTAMSLQAPPSTATEPNHPPISFGASSETFPITFGDFNEGEIESLSSELLTFGDFLPGEVDDLTDSDWSTCSDTDDEL
binding result (G3BP1): binds | binding result [1]: binds | binding result [2]: binds
